According to patent US20190030114A1, “ISOFORM-SPECIFIC CALPAIN INHIBITORS, METHODS OF IDENTIFICATION, AND USES THEREOF” (WESTERN UNIVERSITY OF HEALTH SCIENCES, priority 2014, published 2019):

Target: T1, calpain-2 (Homo sapiens, UniProt P17655)
T1 sequence (P17655 1-700): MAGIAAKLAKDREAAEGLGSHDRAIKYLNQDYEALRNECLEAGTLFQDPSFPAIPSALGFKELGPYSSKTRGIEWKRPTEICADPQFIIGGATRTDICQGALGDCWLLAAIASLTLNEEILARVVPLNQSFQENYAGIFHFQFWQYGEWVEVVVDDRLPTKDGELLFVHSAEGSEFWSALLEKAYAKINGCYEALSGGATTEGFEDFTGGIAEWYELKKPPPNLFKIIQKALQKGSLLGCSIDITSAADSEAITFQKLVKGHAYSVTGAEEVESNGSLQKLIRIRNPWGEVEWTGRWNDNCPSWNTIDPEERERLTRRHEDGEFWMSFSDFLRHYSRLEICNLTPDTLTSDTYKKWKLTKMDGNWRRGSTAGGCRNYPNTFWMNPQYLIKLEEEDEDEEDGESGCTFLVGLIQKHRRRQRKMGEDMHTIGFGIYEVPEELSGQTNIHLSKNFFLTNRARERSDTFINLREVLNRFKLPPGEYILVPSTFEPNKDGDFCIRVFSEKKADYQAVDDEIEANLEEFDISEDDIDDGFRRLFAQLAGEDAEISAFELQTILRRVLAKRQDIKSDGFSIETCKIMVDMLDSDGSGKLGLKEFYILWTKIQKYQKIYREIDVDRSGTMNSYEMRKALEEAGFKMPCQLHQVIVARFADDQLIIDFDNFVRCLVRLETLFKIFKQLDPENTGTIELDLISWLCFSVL
T1 sequence (P04632 1-268 partner): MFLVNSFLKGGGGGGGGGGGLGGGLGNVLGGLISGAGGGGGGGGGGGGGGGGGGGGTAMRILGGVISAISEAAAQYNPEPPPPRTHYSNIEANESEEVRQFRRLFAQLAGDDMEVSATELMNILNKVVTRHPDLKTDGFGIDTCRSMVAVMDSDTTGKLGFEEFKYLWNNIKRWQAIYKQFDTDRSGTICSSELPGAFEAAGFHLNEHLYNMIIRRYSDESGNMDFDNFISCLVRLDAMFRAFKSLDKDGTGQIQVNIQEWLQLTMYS
Experiment: in vitro calpain-2 inhibition, succinic-Leu-Tyr-AMC substrate
Assay type: biochemical
Conditions: selectivity calpain-2 over calpain-1
Protocol: Formula 1, where chiral center 1 is the L-form and chiral center 2 is a racemic mixture of D- and L- in this example was introduced at various concentrations (from 1 nM to 10 μM) into an in vitro mix comprising succinic-Leu-Tyr-AMC and calpain-1 or calpain-2 (Sasaki et al, 1984), and the kinetics of the loss of fluorescence were determined for each of the calpains (Powers et al, 2000). […] Therefore, the assessment of selectivity described herein was different than the prior teaching.
Formula 1A, where chiral center 1 is the S-form and chiral center 2 is the S-form was separated from the S-R-form (Formula 1B) using methods that are well-known methods for separating diastereoisomers. Formula 1A, which is also referred to herein as compound 18A, in this example was introduced at various concentrations into an in vitro mix comprising succinic-Leu-Tyr-AMC and μ-calpain or m-calpain (Sasaki et al, 1984), and the kinetics of the loss of fluorescence were determined for each of the calpains.

B1: Stargazin gamma-2: protein involved in AMPA receptor trafficking, calpain-2 specific substrate; cytoplasmic C-terminus (protein, UniProt Q9Y698 1-323, looked up)
Voltage-dependent calcium …: MGLFDRGVQMLLTTVGAFAAFSLMTIAVGTDYWLYSRGVCKTKSVSENETSKKNEEVMTHSGLWRTCCLEGNFKGLCKQIDHFPEDADYEADTAEYFLRAVRASSIFPILSVILLFMGGLCIAASEFYKTRHNIILSAGIFFVSAGLSNIIGIIVYISANAGDPSKSDSKKNSYSYGWSFYFGALSFIIAEMVGVLAVHMFIDRHKQLRATARATDYLQASAITRIPSYRYRYQRRSRSSSRSTEPSHSRDASPVGIKGFNTLPSTEISMYTLSRDPLKAATTPTATYNSDRDNSFLQVHNCIQKENKDSLHSNTANRRTTPV
inhibits calpain-2 more than calpain-1 (Ki lower for calpain-2): approximately 100 fold
